In paper PMC4599659 one finds stoichiometry N data, which are given here for one substance.

The target of experiment [1] is P22 coat protein (bacteriophage P22) (UniProt P26747). The experiment in a line: SEC-MALS; P22-CYP VLPs from co-expression (pETDuet) in E. coli, purified; HPLC-MALS-RI on WTC-100S5 column, 50 mM phosphate pH 7.2, 100 mM NaCl, 200 ppm sodium azide; CYP-SP per capsid by Eq. 1 (capsid mass taken as 19,572 kDa, CYP-SP 71.5 kDa).
For experiment [2] the target is unchanged. The experiment in a line: SEC-MALS; P22-CYP VLPs from differential expression 1 (pBAD + pRSF; 0.2 % L-arabinose, then 0.5 mM IPTG) in E. coli, purified; HPLC-MALS-RI on WTC-100S5 column, 50 mM phosphate pH 7.2, 100 mM NaCl, 200 ppm sodium azide; CYP-SP per capsid by Eq. 1. Background: Size exclusion chromatography separates by hydrodynamic size, large species first.

For experiment [3] the target is unchanged. The experiment in a line: SEC-MALS; P22-CYP VLPs from differential expression 2 (pBAD + pRSF; 0.125 % L-arabinose, then 0.3 mM IPTG) in E. coli, purified; HPLC-MALS-RI on WTC-100S5 column, 50 mM phosphate pH 7.2, 100 mM NaCl, 200 ppm sodium azide; CYP-SP per capsid by Eq. 1.

UniProt P26747, sequence (P26747 whole entry): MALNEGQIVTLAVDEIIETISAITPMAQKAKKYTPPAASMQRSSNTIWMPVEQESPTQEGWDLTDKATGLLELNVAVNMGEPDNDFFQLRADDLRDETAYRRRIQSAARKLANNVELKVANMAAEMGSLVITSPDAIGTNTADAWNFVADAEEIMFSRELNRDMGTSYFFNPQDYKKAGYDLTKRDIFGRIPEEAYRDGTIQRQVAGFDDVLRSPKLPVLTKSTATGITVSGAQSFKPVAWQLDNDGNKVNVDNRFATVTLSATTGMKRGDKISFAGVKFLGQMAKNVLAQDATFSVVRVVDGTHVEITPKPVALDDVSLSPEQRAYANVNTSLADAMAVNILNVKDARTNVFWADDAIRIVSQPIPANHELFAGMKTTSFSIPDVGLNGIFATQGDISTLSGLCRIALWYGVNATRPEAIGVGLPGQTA

With “CYPBM3 "21B3"-scaffold protein fusion (CYP-SP) (from UniProt P26748 141-303)”, the stoichiometry N in experiment [1] was 156 CYP/capsid; in experiment [2] it was 130 CYP/capsid; in experiment [3], 110 CYP/capsid.

As usually defined, the stoichiometry N is a count of units in the complex or per binding partner.
